{"source": "patent US20100261778", "target": "p53 wild-type (UniProt P04637)", "sequence (P04637 whole entry)": "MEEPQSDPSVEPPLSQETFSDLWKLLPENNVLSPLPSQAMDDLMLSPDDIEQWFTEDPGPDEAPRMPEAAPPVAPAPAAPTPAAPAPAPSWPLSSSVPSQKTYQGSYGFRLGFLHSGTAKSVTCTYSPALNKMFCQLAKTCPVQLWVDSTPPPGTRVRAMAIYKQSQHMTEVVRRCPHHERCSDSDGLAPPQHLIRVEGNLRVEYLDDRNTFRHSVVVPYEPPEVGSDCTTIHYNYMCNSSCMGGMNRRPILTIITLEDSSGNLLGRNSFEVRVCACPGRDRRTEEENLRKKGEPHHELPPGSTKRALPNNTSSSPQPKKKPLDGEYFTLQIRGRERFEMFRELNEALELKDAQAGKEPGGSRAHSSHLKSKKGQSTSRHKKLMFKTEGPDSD", "assay": "cell_activity", "conditions": "dual luciferase activation in H1299 (p53 null)"}
{"substance": "killin promoter 140 bp fragment with p53 site (pGL3-Killin)", "values": [{"measurement": "activity", "value": 70, "unit": "fold"}]}
